B1: Compound 236 (Table 2): Ac-Gly-thioxo-Ile-Val-Pro(1-NpCH2O)-Nva (peptide)
peptide: Ac-GIVP[Nva]
modifications: not fully specified (residue 4); also: Ile2 thioxo (L-thionoisoleucine), thioamide

Where no end group is shown, it is not given here. [ ]: non-standard residue; d: D form. Pro(1-NpCH2O) = Pro(4-R13), R13 = 1-NpCH2O; Pro(2-NpCH2O) = Pro(4-R13), R13 = 2-NpCH2O; P1(R14 Et, 1R,2R) = not defined here; P1(R14 Et, 1S,2S) = not defined here; Pro(4-OBn) = Pro(4-R13), R13 = OBn; Pro(O-Bn) = Pro(4-R13), R13 = O-Bn; Pro(OBn) = Pro(4-R13), R13 = OBn; Chg = N[C@H](C(=O)O)C1CCCCC1; Acca = not defined here; Nva = CCC[C@H](N)C(=O)O; Ac3c = NC1(C(=O)O)CC1

For one assay, the target named is recombinant NS3 protease with the NS4A peptide cofactor … (molar ratio enzyme:cofactor 1:100) (hepatitis C virus genotype 1b). Briefly: cell-based or functional assay.
In the case of Ac-D[dE]IV[Pro(OBn)][(1S,2S)‑1‑amino‑2‑ethylcyclopropanecarboxylic acid]-{NH‑(S)‑CHMePh} [Compound 1001 (Table 10): Ac-Asp-D-Glu-Ile-Val-Pro(OBn)-P1(R14 Et; 1S, 2S)-NH-(S)-CHMePh], the IC50 – broadly, the concentration that gives 50% inhibition – is 2 µM.
Take Ac-D[dE]IVP[Nva] [Compound 128 (Table 1): Ac-Asp-D-Glu-Ile-Val-Pro-Nva]: the IC50 turned out to be 7.4 µM.
Same read-out and setting: then Ac-D[dE][Chg]V[Pro(O-Bn)][Nva] [Compound 211 (Table 2): Ac-Asp-D-Glu-Chg-Val-Pro(O-Bn)-Nva], with 0.12 µM; and Ac-D[dE]IV[Pro(OBn)][(1S,2S)‑1‑amino‑2‑ethylcyclopropanecarboxylic acid]-{NH‑(R)‑CHMePh} [Compound 1002 (Table 10): Ac-Asp-D-Glu-Ile-Val-Pro(OBn)-P1(R14 Et; 1S, 2S)-NH-(R)-CHMePh], with 49 µM.
The same measure, in the same setting: the result for D[dE]IV[Pro(O-Bn)][1‑amino‑2‑vinylcyclopropanecarboxylic acid] (not fully specified; also: further groups not given here) [Compound 636 (Table 6): P6 Asp, P5 D-Glu, P4 Ile, P3 Val, R13 O-Bn, R14 vinyl] reads 0.47 µM; that for Ac-D[dE][Chg]V[Pro(1-NpCH2O)][Acca] (reading uncertain) [Compound 215 (Table 2): Ac-Asp-D-Glu-Chg-Val-Pro(1-NpCH2O)-Acca], 0.014 µM; that for Ac-D[dV]IV[Pro(O-Bn)][Nva] [Compound 202 (Table 2): Ac-Asp-D-Val-Ile-Val-Pro(O-Bn)-Nva], 0.93 µM.
On the same count and under the same terms, then Ac-D[dE][Chg]EE[Acca] (reading uncertain) [Compound 132 (Table 1): Ac-Asp-D-Glu-Chg-Glu-Glu-Acca], with 36 µM.
As to Ac-D[dE]IV[Pro(2-NpCH2O)][Nva] [Compound 213 (Table 2): Ac-Asp-D-Glu-Ile-Val-Pro(2-NpCH2O)-Nva], the IC50 is 0.036 µM.
Take Ac-D[dE]IV[Pro(OBn)][(1R,2R)‑1‑amino‑2‑ethylcyclopropanecarboxylic acid] [Compound 517 (Table 5): Ac-Asp-D-Glu-Ile-Val-Pro(OBn)-P1(R14 Et; 1R, 2R)]: the IC50 is 0.075 µM.
On the same count and under the same terms, the result for B1 reads 4 µM.
The same measure, in the same setting: then Ac-D[dE]IV[Pro(4-OBn)][Nva] [Compound 218 (Table 2): Ac-Asp-D-Glu-Ile-Val-Pro(O-Bn)-Nva], with 0.49 µM.

A further assay shares this target. Briefly: cell-based or functional assay. This is another data set of the same source.
Consider Ac-[Chg]VP[Ac3c] (not fully specified (residue 3); printed as Ac-Chg-Val-Pro(R13)-Acca) [Compound 257 (Table 2): Ac-Chg-Val-Pro(R13)-Acca, R13 drawn], for which the half-maximal inhibitory concentration (IC50) stood at 2.2 µM.
On the same count and under the same terms, the result for Ac-[Chg]VPX (not fully specified (residue 3); printed as Ac-Chg-Val-Pro(O-Bn)-P1) [Compound 228 (Table 2): Ac-Chg-Val-Pro(O-Bn)-P1, P1 drawn] reads 35 µM.
As to Ac-[Chg]VP[Ac3c] (not fully specified (residue 3); printed as Ac-Chg-Val-Pro(1-NpCH2O)-Acca) [Compound 227 (Table 2): Ac-Chg-Val-Pro(1-NpCH2O)-Acca], the 50% inhibitory concentration (IC50) was found to be 3 µM.
On to Ac-[Chg]VP[P1(R14 Et, 1R,2R)] (not fully specified (residue 3); reading uncertain) [Compound 513 (Table 5): Ac-Chg-Val-Pro(1-NpCH2O)-P1(R14 Et; 1R, 2R)], for which the IC50 was found to be 1.66 µM and the fold potency against the corresponding 1S,2S isomer (compound 514) stood at 25 fold.
As for Ac-[Chg][Chg]P[P1(R14 Et, 1S,2S)] (not fully specified (residue 3); reading uncertain) [Compound 506 (Table 5): Ac-Chg-Chg-Pro(1-NpCH2O)-P1(R14 Et; 1S, 2S)], the half-inhibitory concentration (IC50) worked out at 4.85 µM.

These data come from patent publication US6767991.
